Measurements as given in patent US6767887.

Target: human neutral endopeptidase 24.11 (human) (UniProt P08473)
Assay: cell-based or functional assay

Degradation rate (mM/100 ng/ml NEP24.11/min): 0.0586
Substance: GLP-1-(7-36)-NH2 (from UniProt P01275 98-127) (peptide)
